B1: Double-stranded RNA-binding protein Staufen homolog 1, residues 183 to 249; numbered along this chain, O95793 (parent)
chain: KSEISQVFEIALKRNLPVNFEVARESGPPHMKNFVTKVSVGEFVGEGEGKSKKISKKNAAIAVLEEL

Variants of: B1
Experiment: abundance fitness (aPCA) (normalised: wild type 0, dead -1); higher = more abundant; growth selection in yeast, the domain comes from the species named
Details: Homo sapiens

Abundance fitness: each site, then its substitutions
T36: D -0.6 | V -0.684 | Q -0.548 | S -0.204 | I -1.1 | P -0.671 | L -1.04 | W -1.12 | Y -0.449 | R -0.768 | A -0.251 | G -0.664 | N -0.674 | M -0.749 | C 0.046 | F -1.38 | K -0.689
E42: Q -0.05 | T -0.048 | M -0.1 | H 0.014 | S 0.028 | C -0.161 | W -0.3 | D -0.137 | Y -0.131 | K -0.046 | F -0.355 | P 0.053 | A 0.016 | R -0.032 | G 0.011 | L -0.255 | I -0.407
G41: Q -0.979 | C -0.911 | L -0.91 | E -0.611 | S -0.945 | R -0.941 | I -1.41 | F -1.18 | T -1.17 | N -0.853 | D -0.761 | Y -1.13 | W -0.825 | P -0.645 | H -0.737 | M -0.888
S51: P -0.449 | R -0.244 | E -0.553 | V -0.615 | L -0.797 | Q -0.445 | K -0.344 | F -0.929 | H -1 | M -0.587 | I -0.904 | Y -0.657 | T 0.056 | W -0.578 | G -0.791
V40: W -1.3 | N -0.617 | K -0.851 | I -0.514 | S -0.703 | G -0.681 | F -0.564 | A -0.501 | E -0.555 | T -0.541 | P -0.442 | C -0.289 | M -0.312 | Q -0.542 | H -0.783 | L -0.199 | Y -0.809 | R -0.811 | D -0.577
K52: Q -0.318 | L -0.228 | R -0.098 | M -0.29 | N -0.622 | F -0.481 | P -0.179 | T -0.52 | C -0.432 | Y -0.329 | H -0.518 | G -0.603 | A -0.125 | S -0.416 | D -0.587 | V -0.243 | I -0.175
F43: H 0.014 | D -0.628 | S -0.272 | A -0.124 | P -0.649 | E -0.44 | G -0.63 | I -0.197 | T -0.195 | C -0.262 | M -0.255 | N -0.437 | K -0.317 | R -0.482 | L -0.126
K50: S -0.007 | A -0.035 | P 0.078 | M -0.117 | C -0.036 | T -0.048 | N 0.009 | V -0.127 | Y -0.187 | D -0.17 | G -0.184 | Q -0.036 | L -0.132 | W -0.221 | I -0.145 | F -0.406 | E -0.004 | R -0.006
G47: H -0.555 | T -0.868 | M -0.874 | P -0.763 | Y -0.945 | E -0.773 | Q -0.611 | W -1.01 | F -0.945 | K -0.81 | I -0.897 | V -0.834 | C -0.976 | R -0.627 | S -0.667
K53: F -0.175 | A -0.129 | L -0.235 | H -0.263 | I -0.225 | G -0.243 | D -0.192 | E -0.049 | C -0.284 | M -0.278
V38: M -0.231 | I -0.168 | A -0.196 | Y -0.774 | T -0.481 | Q -0.704 | W -0.988 | R -0.654
